Reference: paper PMC12040651, “cAMP-independent Crp homolog adds to the multi-layer regulatory network in Porphyromonas gingivalis”

Experiments:
[1] = molecular target: Crp^Pg protein (Porphyromonas gingivalis A7436 Crp homolog, CRP/FNR superfamily) (Porphyromonas gingivalis A7436); test: cross-linking; 10 uM purified Crp^Pg in PBS, 30 min at room temperature, without or with 1 mM cAMP, then 0.2% formaldehyde for 1 h at 37°C; SDS-PAGE with CBB G-250 staining; monomer to dimer
CrpPg (Crp homolog) = molecular target: T1, CrpPg (Crp homolog) (Porphyromonas gingivalis A7436, UniProt Q7MAW7 1-232); test: EMSA; details: protein: recombinant, tags: 6xHis-MBP N-terminal, removed with Factor Xa, chain copies: 2, blunt
T1 sequence: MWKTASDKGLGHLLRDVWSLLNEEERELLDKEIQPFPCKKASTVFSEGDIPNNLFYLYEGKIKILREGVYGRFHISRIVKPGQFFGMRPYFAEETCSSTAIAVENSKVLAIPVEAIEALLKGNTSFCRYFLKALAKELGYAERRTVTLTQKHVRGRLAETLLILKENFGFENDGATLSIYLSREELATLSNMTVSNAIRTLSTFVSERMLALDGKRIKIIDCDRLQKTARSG

With “Crp^Pg protein (Porphyromonas gingivalis A7436 Crp homolog, CRP/FNR superfamily) (natural protein)” the stoichiometry N [1] was 2.

B1: crpPg promoter fragment 4 (dsDNA)
DNA 1: CTCATAATAATAGTTCTACGGCCTTTCTTCCTCGTTGTACGGATTTGAGCAAATAGACATTCTCTGAACACTTATATGTGGAAGACAG
DNA 2: CTGTCTTCCACATATAAGTGTTCAGAGAATGTCTATTTGCTCAAATCCGTACAACGAGGAAGAAAGGCCGTAGAACTATTATTATGAG
B1: binds (CrpPg (Crp homolog); label: 5' biotin via PBM_0206 (probe)).

B2: mfa promoter fragment 5 (dsDNA)
DNA 1: ATTTAATATTAATCCTTTTAAACATTTGGCTTATGAAGTTAAACAAAATGTTTTTGGTCGGAGCATTGCTCTCATTGGGCT
DNA 2: AGCCCAATGAGAGCAATGCTCCGACCAAAAACATTTTGTTTAACTTCATAAGCCAAATGTTTAAAAGGATTAATATTAAAT
B2: binds (CrpPg (Crp homolog); label: 5' biotin via PBM_0217 (probe)).
